The target in assay [1] is T1, monomeric hIL-4R (R&D Systems) (human, UniProt P24394 26-232, limits assumed).
T1 construct: Bought protein (R&D Systems); also called human IL-4 receptor alpha
T1 sequence: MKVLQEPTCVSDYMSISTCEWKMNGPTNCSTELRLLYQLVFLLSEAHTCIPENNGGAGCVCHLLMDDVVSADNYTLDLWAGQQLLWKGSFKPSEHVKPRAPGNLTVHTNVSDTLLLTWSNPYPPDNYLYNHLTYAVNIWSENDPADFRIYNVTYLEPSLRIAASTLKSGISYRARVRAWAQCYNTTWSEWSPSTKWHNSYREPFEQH
Description: SPR (BIACORE 2000), antibody captured on anti-hFc, monomeric hIL-4R, 25° C. How it is done:
(§1) Briefly, antibody was captured on a goat anti-hFc polyclonal antibody surface created through direct coupling to a BIACORE™ chip to form a captured antibody surface. Various concentrations (ranging from 50 nM to 12.5 nM) of monomeric hIL-4R (R&D Systems) or dimeric hIL-4R-mFc were injected over the captured antibody surface at 10 μl/min for 2.5 min at either 25° C. or 37° C. Binding of antigen to antibody and dissociation of the bound complex, were monitored in real time. Equilibrium dissociation constants (KD) and dissociation rate constants were ascertained by performing kinetic analysis using BIA evaluation software. BIA evaluation software was also used to calculate the half-life of antigen/antibody complex dissociation (T_{1/2}). […] Control: a fully human anti-IL-4R antibody (U.S. Pat. No. 7,186, 809; SEQ ID NOs:10 and 12).

The target in assay [2] is T2, dimeric hIL-4R-mFc (human, UniProt P24394 26-232).
T2 construct: not shown: mFc (mouse Fc)
T2 sequence: T1 sequence
Description: SPR (BIACORE 2000), antibody captured on anti-hFc, dimeric hIL-4R-mFc, 37° C. How it is done:
as §1
On the technique in general: SPR reads the build-up and loss of mass on a sensor chip optically.

The target of assay [3] is T2, dimeric hIL-4R-mFc. Description: ELISA-based solution competition, 25 pM hIL-4R-mFc, free receptor on biotin-hIL4 plate. The protocol:
(§2) Antibody-antigen binding affinity was also assessed using an ELISA-based solution competition assay. Briefly, a 96-well MAXISORP™ plate was first coated with 5 μg/ml avidin overnight followed by BSA blocking for 1 hr. […] The plate was used to measure either free hIL-4R-mFc (dimeric hIL-4R) or free hIL-4R-myc-myc-his (hIL4R-mmh, monomeric hIL4R) in the antibody titration sample solutions. […] After 1 hr binding, the plate was washed and bound hIL-4R-mFc was detected using either an HRP-conjugated mouse anti-mFc polyclonal antibody or an HRP-conjugated goat anti-myc polyclonal antibodies. IC₅₀ values were determined (Table 2).
(An ELISA detects its analyte on a solid surface through an enzyme-linked reagent.)

Assay [4] has as its target T2, dimeric hIL-4R-mFc. The experiment in a line: SPR (BIACORE 2000), antibody captured on anti-hFc, dimeric hIL-4R-mFc, 25° C. How it is done:
as §1

Assay [5] concerns the target T3, hIL-4R on engineered HK293 cells (human STAT6 and STAT6 luciferase reporter) (human, UniProt P24394 26-232).
T3 sequence: T1 sequence
The experiment in a line: cell-based or functional assay.

Assay [6] concerns the target T1, monomeric hIL-4R (R&D Systems). Description: SPR (BIACORE 2000), antibody captured on anti-hFc, monomeric hIL-4R, 37° C. The protocol:
as §1

The target in another assay is T4, hIL-4R-myc-myc-his (human, UniProt P24394 26-232).
T4 construct: also called hIL-4R-mmh; hIL4R-mmh; not shown: myc-myc-his tag
T4 sequence: T1 sequence
The experiment in a line: ELISA-based solution competition, 200 pM hIL-4R-mmh, free receptor on biotin-hIL4 plate. How it is done:
as §2

Assay [7] addresses T5, mfIL-4R of the cellular bioassay (monkey (Macaca fascicularis), UniProt P24394 26-231 (human entry)).
T5 chain: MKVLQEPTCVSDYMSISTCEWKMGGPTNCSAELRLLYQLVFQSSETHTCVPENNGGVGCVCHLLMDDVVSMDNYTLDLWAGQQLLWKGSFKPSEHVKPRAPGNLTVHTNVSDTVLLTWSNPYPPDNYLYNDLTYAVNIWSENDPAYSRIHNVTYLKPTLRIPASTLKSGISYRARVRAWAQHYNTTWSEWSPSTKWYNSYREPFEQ
Description: cell-based or functional assay.

B1: H4H095P (antibody, V domains shown)
VH: QVQLVESGGGVVQPGRSLRLSCAASGFTFRSYGMHWVRQAPGKGLEWVAVISYDGSNKYYIDSVKGRFTISRDNSKNTLNLQMNSLRLEDTAVYYCAKEGRGGFDYWGQGTLVTVSS
VL: DIQMTQSPSSLSASVGDRVTITCRASQVINNYLAWFQQKPGKVPKSLIHAASSLQSGVPSKFSGSGSGTDFTLTISSLQPEDFATYYCQQYNSHPWTFGQGTKVEIK
notes: Human anti-hIL-4R antibody captured via anti-hFc
As for B1, the Kd in assay [1] was determined as 0.274 nM; with dimeric hIL-4R-mFc [2] it was 0.314 nM; with dimeric hIL-4R-mFc [4] it was 0.302 nM; in assay [6], 0.437 nM. For the same molecule, the T1/2 in assay [1] worked out at 2.18 h; in the assay with dimeric hIL-4R-mFc [2] it was 1.93 h; with dimeric hIL-4R-mFc [4] it was 2.6 h; in assay [6] it was 0.817 h. In addition, the IC50 with dimeric hIL-4R-mFc [3] was 0.04 nM; with hIL-4R-myc-myc-his, 0.09 nM. In assay [5], the “IC50 (pM), STAT6 luciferase bioassay, 10 pM hIL-4” value (“IC50 (pM) … 10 pM hIL-4” below) turned out to be 98 pM. Moreover, the “IC50 (pM), STAT6 luciferase bioassay, 40 pM hIL-13” value (shortened to “IC50 (pM) … 40 pM hIL-13”) in assay [5] stood at 86 pM.

B2: H4H083P (antibody, V domains shown)
VH: EVQLVESGGGLVQPGRSLRLSCEASGFTFDDYAMHWVRQAPGKGLEWVSGLSRTSVSIGYADSVKGRFTISRDNAKNSLYLEMNSLRPEDTALYYCAKWGTRGYFDYWGQGTLVTVSS
VL: DIQMTQSPSSVSASVGDRVTITCRASQDISIWLAWYQQSPGKAPKLLINVASRLQSGVPSRFSGSGSGTDFTLTINSLQPEDFVTYYCQQANSFPITFGQGTRLEIK
notes: as for B1
For the molecule B2, the figures for the Kd (in assay [1]; in the assay with dimeric hIL-4R-mFc [2]; in assay [6]) were 0.048 nM, 0.0381 nM and 0.183 nM, respectively. Also, the T1/2 stood at 6.02 h in assay [1], 2.72 h in the assay with dimeric hIL-4R-mFc [2], 4.08 h in the assay with dimeric hIL-4R-mFc [4] and 1.45 h in assay [6]. Moreover, the IC50 in the assay with dimeric hIL-4R-mFc [3] turned out to be 0.0096 nM; with hIL-4R-myc-myc-his it was 0.08 nM. In assay [5], the “IC50 (pM) … 10 pM hIL-4” value amounted to 25 pM. In addition, the “IC50 (pM) … 40 pM hIL-13” value in assay [5] was found to be 19 pM.

B3: H4H098P (antibody, V domains shown)
VH: EVQLVESGGGLEQPGGSLRLSCAGSGFTFRDYAMTWVRQAPGKGLEWVSSISGSGGNTYYADSVKGRFTISRDNSKNTLYLQMNSLRAEDTAVYYCAKDRLSITIRPRYYGLDVWGQGTTVTVS
VL: DIVMTQSPLSLPVTPGEPASISCRSSQSLLYSIGYNYLDWYLQKSGQSPQLLIYLGSNRASGVPDRFSGSGSGTDFTLKISRVEAEDVGFYYCMQALQTPYTFGQGTKLEIK
B3: in assay [5], the “IC50 (pM) … 10 pM hIL-4” value was determined as 27 pM and the “IC50 (pM) … 40 pM hIL-13” value came out at 25 pM. The “IC50, bioassay in the presence of 360 fM mfIL-4” value in assay [7] worked out at 150 nM.

By Kd is commonly meant a measure of binding affinity in units of concentration. As a reminder, the IC50 is the concentration needed to halve the response being measured.

Source of the values: patent US20090074793A1 (published 2009).
